Reference: article PMC12375015

Target: Cas7 of the PseCAST TniQ-Cascade (QCascade) complex (Pseudoalteromonas (Tn7016 transposon))
Test: cryo-EM structure

Substance “Cas7 of the PseCAST TniQ-Cascade (QCascade) complex (natural protein)” has a stoichiometry N of 6.
